# Data taken from patent publication US20110311499A1 (University of Washington, published 2011).
# B1: Tsi1-V (type VI secretion immunity protein 1 fused to the VSV-G epitope) (other)
# chain: ADCTFTQLEIVPQFGSPNMFGGEDEHVRVMFSNEDPNDDNPDAFPEPPVYLADRDSGNDCRIEDGGIWSRGGVFLSQDGRRVLMHEFSGSSAELVSYDSATCKVVHREDISGQRWAVDKDGLRLGQKCSGESVDSCAKIVKRSLAPFCQTAKK
# B2: Tsi3-V (type VI secretion immunity protein 3 fused to the VSV-G epitope) (other)
# chain: CTAESGVDFDKTLTHPNGLVVERPVGFDARRSAEGFRFDEGGKLRNPRQLEVQRQDAPPPPDLASRRLGDGEARYKVEEDDGGSAGSEYRLWAAKPAGARWIVVSASEQSEDGEPTFALAWALLERARLQ
# Key:
# [1] = target: T1, Tse1-His6 (purified Tse1, PA1844, with C-terminal hexahistidine tag) (Pseudomonas aeruginosa PAO1, UniProt Q9I2Q1 1-154); experiment: co-immunoprecipitation (FIG. 17a)
# T1 construct: not shown: C-terminal hexahistidine tag (six His) from pET29b+
# T1 sequence: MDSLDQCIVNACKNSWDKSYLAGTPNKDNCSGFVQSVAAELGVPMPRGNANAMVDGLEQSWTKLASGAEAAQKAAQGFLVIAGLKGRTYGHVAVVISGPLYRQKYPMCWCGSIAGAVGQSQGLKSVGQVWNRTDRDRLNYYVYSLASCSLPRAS
# [2] = target: T2, Tse3-His6 (purified Tse3, PA3484, with C-terminal hexahistidine tag) (Pseudomonas aeruginosa PAO1, UniProt Q9HYC5 1-408); experiment: co-immunoprecipitation (FIG. 17a)
# T2 construct: not shown: C-terminal hexahistidine tag (six His) from pET29b+
# T2 sequence: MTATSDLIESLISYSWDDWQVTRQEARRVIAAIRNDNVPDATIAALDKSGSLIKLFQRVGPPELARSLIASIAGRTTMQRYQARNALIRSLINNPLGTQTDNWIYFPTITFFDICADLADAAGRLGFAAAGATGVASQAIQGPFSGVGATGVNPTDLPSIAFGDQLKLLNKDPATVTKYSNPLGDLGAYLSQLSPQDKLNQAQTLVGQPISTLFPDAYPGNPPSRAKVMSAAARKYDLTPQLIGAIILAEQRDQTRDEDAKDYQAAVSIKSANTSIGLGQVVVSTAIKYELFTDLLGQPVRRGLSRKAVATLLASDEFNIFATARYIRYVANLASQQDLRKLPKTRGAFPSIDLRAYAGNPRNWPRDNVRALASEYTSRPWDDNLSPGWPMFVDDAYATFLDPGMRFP
binder,measurement,setting,value
B1,binding result,[1],binds
B2,binding result,[2],binds
